Measurements reported in US7314716B2, “Gustducin γ subunit materials and methods” (Mount Sinai School of Medicine, priority 1999, dated 2008).

How the values were obtained:
β1 subunit = target: T1, β1 subunit (Homo sapiens, UniProt P62873); assay: Trypsin assay of βγ dimer formation; format: binding; conditions: cotranslated in vitro with β1 subunit
T1 construct: made in house; host or cells: cell-free in vitro transcription/translation
Description: To determine which β and gustducin γ subunit combinations were capable of forming dimers another trypsin assay was utilized. β monomers are cleaved at numerous sites by trypsin, whereas βγ dimers are cleaved at a single site, resulting in the appearance of a 26-kDa fragment of the β subunit. See Schmidt et al., J. Biol. Chem., 267: 13807–13810 (1992).
Plasmid DNAs (0.5 μg) encoding β1 subunit was transcribed and translated in vitro, in the presence or absence of plasmid DNA (0.5 μg) coding for the gustducin γ subunit. Aliquots (10 μl) of the cotranslated βγ mix or β subunit alone were digested by TPCK-treated trypsin (1 μg) in a final volume of 20 μl (with 50 mM Na-HEPES pH 8.0). After incubation for 1 hour at 30° C., the digestions were stopped by addition of 6 μg SBTI as described above. Protected fragments of β subunits were analyzed on 15% SDS-PAGE. Detection was as described above.
In the assay, β1 formed dimers with gustducin γ subunit that were protected from trypsin digestion.

gustducin α subunit = target: T2, gustducin α subunit (Rattus norvegicus, UniProt P29348); assay: Trypsin protection assay of G protein α and γ subunit interaction; format: binding; conditions: in vitro translated γ and α subunits mixed 3:1, without β subunit
T2 construct: made in house; host or cells: cell-free in vitro transcription/translation (Promega TNT system)
T2 sequence (P29348 2-354 limits assumed): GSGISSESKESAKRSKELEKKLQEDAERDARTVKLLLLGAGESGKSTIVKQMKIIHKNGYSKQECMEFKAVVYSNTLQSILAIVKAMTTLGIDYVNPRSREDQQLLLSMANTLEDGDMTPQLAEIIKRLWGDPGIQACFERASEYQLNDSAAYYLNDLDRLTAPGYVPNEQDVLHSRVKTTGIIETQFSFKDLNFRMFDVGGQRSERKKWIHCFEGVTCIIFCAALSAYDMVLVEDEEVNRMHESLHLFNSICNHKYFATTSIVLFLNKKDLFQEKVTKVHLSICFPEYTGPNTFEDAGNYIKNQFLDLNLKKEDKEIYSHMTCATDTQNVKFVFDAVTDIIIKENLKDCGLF
From the text: The interaction was confirmed using a trypsin protection assay that detects the direct interaction of G protein α and γ subunits. The assay is based on the fact that γ subunits, in the absence of β subunits, can interact directly with α subunits, and that this interaction apparently dictates which βγ dimer associates with which α subunit. See Rahmatullah & Robishaw, J. Biol. Chem., 269: 3574–3580 (1994).
To monitor G protein α and γ subunit interactions, gustducin γ and α subunit DNAs were transcribed and translated in vitro using the Promega TNT system, mixed in a 3:1 ratio, and incubated for 15 minutes at 30° C. in buffer G [15 mM Na-HEPES pH 8.0, 250 mM NaCl, 0.6 mM EDTA, 0.6 mM DTT, 5 mM MgCl2, 0.1 mM GDP and 0.3% polyoxyethylene 10-lauryl ether (LPX)]. The assay was initiated by adding Tosyl-L-phenylalanine chloromethyl ketone (TPCK) treated-trypsin (0.5 μg), incubated for 1 hour at 30° C., and terminated with 3 μg soybean trypsin inhibitor (SBTI) (15 min, at 30° C.). The samples were analyzed on 12% SDS-PAGE, gels were fixed, enhanced with En^3Hance (NEN), dried and exposed to X-ray film.
Other Gγ subunits were also tested in the assay.

T1 sequence (P62873 whole entry): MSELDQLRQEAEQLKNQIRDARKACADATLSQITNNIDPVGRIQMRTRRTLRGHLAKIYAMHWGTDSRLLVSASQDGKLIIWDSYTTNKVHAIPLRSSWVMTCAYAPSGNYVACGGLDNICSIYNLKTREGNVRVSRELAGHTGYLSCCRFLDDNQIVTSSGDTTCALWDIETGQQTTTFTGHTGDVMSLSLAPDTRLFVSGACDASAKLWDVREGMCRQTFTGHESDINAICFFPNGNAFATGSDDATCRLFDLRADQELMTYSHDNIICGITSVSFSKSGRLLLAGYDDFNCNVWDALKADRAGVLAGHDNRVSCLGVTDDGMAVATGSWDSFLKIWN
T1 sequence (Q9P2W3 whole entry partner): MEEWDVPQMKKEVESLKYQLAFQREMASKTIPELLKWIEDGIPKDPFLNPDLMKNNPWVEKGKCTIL

Row | dimer formation with β1, protected from trypsin digestion (β1 subunit) | Molecule | protection of gustducin α subunit from tryptic digestion (gustducin α subunit)
1 | formed dimers | Gustducin γ subunit: γ subunit of the taste cell G protein gustducin, 67 amino acids, designated Gγ13 (protein, listed as Mus musculus, ends and bridges not checked, γ subunit of the taste cell G protein gustducin, 67 amino acids, designated Gγ13) MEEWDVPQMKKEVESLKYQLAFKREMSSKTIPELLKWIEDGIPKDPFLNPDLMKNNPWVEKAKCTIL | protected gustducin α subunit from tryptic digestion to a significant extent
2 |  | Gγ1: G protein γ subunit which interacts with the rod transducin α subunit (protein) PVINIEDLTEKDKLKMEVDQLKKEVTLERMLVSKCCEEFRDYVEERSGEDPLVKGIPEDKNPFKELKGGC | appeared to interact with gustducin α subunit, albeit to a lesser extent
3 |  | cone γ8 subunit: the cone transducin α subunit partner (protein, ends and bridges not checked, the cone transducin α subunit partner) MAQDLSEKDLLKMEVEQLKKEVKNTRIPISKAGKEIKEYVEAQAGNDPFLKGIPEDKNPFKEKGGCLIS | unable to protect
4 |  | Gγ5: G protein γ5 subunit (protein) SGSSSVAAMKKVVQQLRLEAGLNRVKVSQAAADLKQFCLQNAQHDPLLTGVSSSTNPFRPQKVC | unable to protect
